Data on one substance can be found in doi:10.1101/2023.05.30.542953.

For this assay, the target named is Lactobacillus helveticus chlorogenic acid esterase (LhCE), wild type (Lactobacillus helveticus). The assay can be described thus: crystal structure.

As usually defined, the stoichiometry N is a count of units in the complex or per binding partner. In turn, “Lactobacillus helveticus chlorogenic acid esterase (LhCE), wild type (enzyme)” returned a stoichiometry N of 2.
